Assay results from patent US20220154170A1.

Biological target: clade B MN gp41 monomer (HIV-1 clade B, strain MN) (UniProt P05877)
Assay: endpoint ELISA, plate-coated MN gp41

Sequence of UniProt P05877 (P05877 514-856 limits assumed): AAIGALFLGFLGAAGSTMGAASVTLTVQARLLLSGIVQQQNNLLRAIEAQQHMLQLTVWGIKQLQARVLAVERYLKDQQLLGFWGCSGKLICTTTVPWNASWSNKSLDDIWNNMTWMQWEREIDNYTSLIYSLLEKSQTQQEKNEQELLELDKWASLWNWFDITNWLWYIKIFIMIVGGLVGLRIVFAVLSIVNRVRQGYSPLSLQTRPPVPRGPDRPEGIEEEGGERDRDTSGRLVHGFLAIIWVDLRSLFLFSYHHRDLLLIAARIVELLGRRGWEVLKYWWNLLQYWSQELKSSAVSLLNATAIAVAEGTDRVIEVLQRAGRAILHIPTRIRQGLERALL

## 240-D (antibody)
  endpoint titer: 78.1 ng/mL
